The numbers were not newly measured in publication PMC2783455, which cites them from elsewhere.

This data set deals with Calmodulin (UniProt P0DP23).

A word on the Kd: it is the free concentration of one partner at which half of the binding sites on the other are occupied at equilibrium, for simple one-to-one binding. As for CyaA (from UniProt J7QLC0), the Kd is 0.2 nM.
